Assay results from PMC12048511, “An asymmetric nautilus-like HflK/C assembly controls FtsH proteolysis of membrane proteins” (The EMBO Journal, 2025).

Molecular target: T1, FtsH with a C-terminal FLAG epitope (chromosomally encoded) (E. coli, UniProt P0AAI3 1-644)
T1 construct: FtsH, E. coli BL21(DE3), product of the chromosomal ftsH gene with a tag appended to its C-terminus; residues 31-97 (periplasmic domain) are modelled in PDB 9CZ2; Homohexamer; one or two hexamers per HflK/C assembly; also called FtsH-FLAG (C-terminal); tagged FtsH; source: E. coli BL21(DE3), chromosomal ftsH locus modified (no overproduction); anti-FLAG M2 resin from membranes solubilised with …
T1 sequence (P0AAI3 whole entry, the tested form may be a part): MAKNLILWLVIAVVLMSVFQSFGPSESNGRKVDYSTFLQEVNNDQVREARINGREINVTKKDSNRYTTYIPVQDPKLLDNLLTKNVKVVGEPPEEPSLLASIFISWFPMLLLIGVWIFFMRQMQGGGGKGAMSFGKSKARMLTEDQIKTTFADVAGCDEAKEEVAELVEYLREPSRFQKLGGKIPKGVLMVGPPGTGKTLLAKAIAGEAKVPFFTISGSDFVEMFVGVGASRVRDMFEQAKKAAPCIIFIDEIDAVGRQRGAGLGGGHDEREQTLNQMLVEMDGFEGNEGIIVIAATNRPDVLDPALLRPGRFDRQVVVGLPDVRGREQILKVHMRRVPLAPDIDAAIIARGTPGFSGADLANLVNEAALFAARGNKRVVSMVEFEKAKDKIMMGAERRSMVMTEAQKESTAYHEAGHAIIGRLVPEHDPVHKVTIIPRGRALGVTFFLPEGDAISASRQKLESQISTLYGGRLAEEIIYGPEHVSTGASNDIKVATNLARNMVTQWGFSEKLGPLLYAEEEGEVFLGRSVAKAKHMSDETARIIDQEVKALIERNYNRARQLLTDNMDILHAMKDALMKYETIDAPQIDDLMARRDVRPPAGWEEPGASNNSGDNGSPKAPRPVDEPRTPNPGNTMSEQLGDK
Assay: co-IP; anti-FLAG M2 resin on solubilised membranes of E. coli with chromosomally FLAG-tagged FtsH (1% DDM or 2% GDN; also detergent-free with Carboxy-DIBMA), eluted with FLAG peptide; no overproduction
Details: partners not purified

binding result: binds
B1: HflK (endogenous) (natural protein, E. coli (endogenous in BL21(DE3)), UniProt P0ABC7 1-419, looked up)
chain: MAWNQPGNNGQDRDPWGSSKPGGNSEGNGNKGGRDQGPPDLDDIFRKLSKKLGGLGGGKGTGSGGGSSSQGPRPQLGGRVVTIAAAAIVIIWAASGFYTIKEAERGVVTRFGKFSHLVEPGLNWKPTFIDEVKPVNVEAVRELAASGVMLTSDENVVRVEMNVQYRVTNPEKYLYSVTSPDDSLRQATDSALRGVIGKYTMDRILTEGRTVIRSDTQRELEETIRPYDMGITLLDVNFQAARPPEEVKAAFDDAIAARENEQQYIREAEAYTNEVQPRANGQAQRILEEARAYKAQTILEAQGEVARFAKLLPEYKAAPEITRERLYIETMEKVLGNTRKVLVNDKGGNLMVLPLDQMLKGGNAPAAKSDNGASNLLRLPPASSSTTSGASNTSSTSQGDIMDQRRANAQRNDYQRQGE
notes: HflK, E. coli BL21(DE3), SPFH-domain protein; residues 79-355 modelled for most subunits in PDB 9CZ2; 24 alternating HflK and HflC subunits form the nautilus-like assembly; also called HflK/C subunit; source: endogenous, E. coli BL21(DE3), co-purified with FtsH-FLAG on anti-FLAG resin
